Where two headings read alike, the source gives them in different places.

In assay [1] the target is MCSP (melanoma-associated chondroitin sulfate proteoglycan) on WM35 cells (human, UniProt Q6UVK1 30-2322). The assay can be described thus: cell-based or functional assay.
The next assay deals with T1, Her3-Fc fusion protein (human, UniProt P21860 20-643).
T1 construct: also called immobilized Her3-Fc fusion protein; not shown: Fc part not described
Put plainly: ELISA, immobilized Her3-Fc fusion protein.

The target in assay [2] is T2, TNFR1 on the surface of cells (HT1080, HeLa, Kym-1) (human, UniProt P19438 30-455).
T2 sequence (looked up): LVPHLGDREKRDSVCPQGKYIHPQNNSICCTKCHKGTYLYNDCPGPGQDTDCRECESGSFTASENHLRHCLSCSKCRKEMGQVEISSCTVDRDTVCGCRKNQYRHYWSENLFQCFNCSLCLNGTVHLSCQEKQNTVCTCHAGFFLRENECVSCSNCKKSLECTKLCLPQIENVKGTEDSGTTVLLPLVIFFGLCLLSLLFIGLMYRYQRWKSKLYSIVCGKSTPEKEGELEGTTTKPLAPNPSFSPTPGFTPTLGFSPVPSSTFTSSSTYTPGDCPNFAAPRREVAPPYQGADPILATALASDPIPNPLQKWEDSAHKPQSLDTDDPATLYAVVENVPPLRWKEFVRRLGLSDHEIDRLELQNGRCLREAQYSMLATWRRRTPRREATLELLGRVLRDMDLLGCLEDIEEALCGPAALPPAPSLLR
The assay can be described thus: cell-based or functional assay.

The target in assay [3] is T2, TNFR1 on the surface of cells (HT1080, …). The assay can be described thus: cell-based or functional assay. The source holds these as a separate data set.
In assay [4] the target is T3, human TNFR1-Fc fusion protein (human, UniProt P19438 30-211).
T3 construct: Provided by Baliopharm AG; Coated at 1 ug/ml in the ELISA; also called huTNFR1-Fc; immobilized human TNFR1; not shown: Fc part not described
T3 sequence (looked up): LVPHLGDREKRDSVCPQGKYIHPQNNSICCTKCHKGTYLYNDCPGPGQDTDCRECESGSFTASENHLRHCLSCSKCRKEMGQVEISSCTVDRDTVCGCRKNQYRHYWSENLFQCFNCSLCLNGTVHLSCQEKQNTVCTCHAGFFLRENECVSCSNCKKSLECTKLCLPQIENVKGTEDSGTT
The assay can be described thus: ELISA, immobilized human TNFR1-Fc. As to the method: (§1) Microtiter plates were coated with 100 μl of TNFFR1-Fc fusion protein (1 μg/ml in PBS) and incubated at 4° C. overnight. The residual binding sites were blocked with 2% MPBS (skim milk in PBS, 200 μl per well) at room temperature for 2 hours and subsequently washed twice with PBS. 100 μl of the samples diluted in 2% MPBS were incubated at room temperature for 1 hour prior to the last incubation step with 100 μl of the HRP conjugated detection antibodies in 2% MPBS. Bound protein was detected with 100 μl TMB substrate solution, the HRP-reaction was stopped by the addition of 50 μl 1 M H2SO4 and the absorption at the wavelength of 450 nm was measured using the Infinite microtiter plate reader (TECAN, Maennedorf, Switzerland). Between each incubation step and in advance of the detection, the plates were washed three times with PBST and twice with PBS.
(In general: In an ELISA, binding on a coated surface is turned into a signal by an enzyme label.)

The target in assay [5] is T3, human TNFR1-Fc fusion protein. The assay can be described thus: ELISA, immobilized human TNFR1-Fc. As to the method:
Microtiter plates were coated with 100 μl of TNFFR1-Fc fusion protein (1 μg/ml in PBS) and incubated at 4° C. overnight.
The source holds these as a separate data set.

The target is the same in assay [6]. The assay can be described thus: ELISA, human TNFR1-Fc. The procedure: as §1
Assay [7] has as its target T2, TNFR1 on the surface of cells (HT1080, …). Put plainly: cell-based or functional assay. The source holds these as a separate data set.
The target is the same in assay [8]. The assay can be described thus: cell-based or functional assay. The source holds these as a separate data set.
Assay [9] deals with T3, human TNFR1-Fc fusion protein. The assay can be described thus: ELISA, immobilized human TNFR1-Fc. The source holds these as a separate data set.

Chain of MCSP (melanoma-associated chondroitin sulfate proteoglycan) on WM35 cells (Q6UVK1 30-2322): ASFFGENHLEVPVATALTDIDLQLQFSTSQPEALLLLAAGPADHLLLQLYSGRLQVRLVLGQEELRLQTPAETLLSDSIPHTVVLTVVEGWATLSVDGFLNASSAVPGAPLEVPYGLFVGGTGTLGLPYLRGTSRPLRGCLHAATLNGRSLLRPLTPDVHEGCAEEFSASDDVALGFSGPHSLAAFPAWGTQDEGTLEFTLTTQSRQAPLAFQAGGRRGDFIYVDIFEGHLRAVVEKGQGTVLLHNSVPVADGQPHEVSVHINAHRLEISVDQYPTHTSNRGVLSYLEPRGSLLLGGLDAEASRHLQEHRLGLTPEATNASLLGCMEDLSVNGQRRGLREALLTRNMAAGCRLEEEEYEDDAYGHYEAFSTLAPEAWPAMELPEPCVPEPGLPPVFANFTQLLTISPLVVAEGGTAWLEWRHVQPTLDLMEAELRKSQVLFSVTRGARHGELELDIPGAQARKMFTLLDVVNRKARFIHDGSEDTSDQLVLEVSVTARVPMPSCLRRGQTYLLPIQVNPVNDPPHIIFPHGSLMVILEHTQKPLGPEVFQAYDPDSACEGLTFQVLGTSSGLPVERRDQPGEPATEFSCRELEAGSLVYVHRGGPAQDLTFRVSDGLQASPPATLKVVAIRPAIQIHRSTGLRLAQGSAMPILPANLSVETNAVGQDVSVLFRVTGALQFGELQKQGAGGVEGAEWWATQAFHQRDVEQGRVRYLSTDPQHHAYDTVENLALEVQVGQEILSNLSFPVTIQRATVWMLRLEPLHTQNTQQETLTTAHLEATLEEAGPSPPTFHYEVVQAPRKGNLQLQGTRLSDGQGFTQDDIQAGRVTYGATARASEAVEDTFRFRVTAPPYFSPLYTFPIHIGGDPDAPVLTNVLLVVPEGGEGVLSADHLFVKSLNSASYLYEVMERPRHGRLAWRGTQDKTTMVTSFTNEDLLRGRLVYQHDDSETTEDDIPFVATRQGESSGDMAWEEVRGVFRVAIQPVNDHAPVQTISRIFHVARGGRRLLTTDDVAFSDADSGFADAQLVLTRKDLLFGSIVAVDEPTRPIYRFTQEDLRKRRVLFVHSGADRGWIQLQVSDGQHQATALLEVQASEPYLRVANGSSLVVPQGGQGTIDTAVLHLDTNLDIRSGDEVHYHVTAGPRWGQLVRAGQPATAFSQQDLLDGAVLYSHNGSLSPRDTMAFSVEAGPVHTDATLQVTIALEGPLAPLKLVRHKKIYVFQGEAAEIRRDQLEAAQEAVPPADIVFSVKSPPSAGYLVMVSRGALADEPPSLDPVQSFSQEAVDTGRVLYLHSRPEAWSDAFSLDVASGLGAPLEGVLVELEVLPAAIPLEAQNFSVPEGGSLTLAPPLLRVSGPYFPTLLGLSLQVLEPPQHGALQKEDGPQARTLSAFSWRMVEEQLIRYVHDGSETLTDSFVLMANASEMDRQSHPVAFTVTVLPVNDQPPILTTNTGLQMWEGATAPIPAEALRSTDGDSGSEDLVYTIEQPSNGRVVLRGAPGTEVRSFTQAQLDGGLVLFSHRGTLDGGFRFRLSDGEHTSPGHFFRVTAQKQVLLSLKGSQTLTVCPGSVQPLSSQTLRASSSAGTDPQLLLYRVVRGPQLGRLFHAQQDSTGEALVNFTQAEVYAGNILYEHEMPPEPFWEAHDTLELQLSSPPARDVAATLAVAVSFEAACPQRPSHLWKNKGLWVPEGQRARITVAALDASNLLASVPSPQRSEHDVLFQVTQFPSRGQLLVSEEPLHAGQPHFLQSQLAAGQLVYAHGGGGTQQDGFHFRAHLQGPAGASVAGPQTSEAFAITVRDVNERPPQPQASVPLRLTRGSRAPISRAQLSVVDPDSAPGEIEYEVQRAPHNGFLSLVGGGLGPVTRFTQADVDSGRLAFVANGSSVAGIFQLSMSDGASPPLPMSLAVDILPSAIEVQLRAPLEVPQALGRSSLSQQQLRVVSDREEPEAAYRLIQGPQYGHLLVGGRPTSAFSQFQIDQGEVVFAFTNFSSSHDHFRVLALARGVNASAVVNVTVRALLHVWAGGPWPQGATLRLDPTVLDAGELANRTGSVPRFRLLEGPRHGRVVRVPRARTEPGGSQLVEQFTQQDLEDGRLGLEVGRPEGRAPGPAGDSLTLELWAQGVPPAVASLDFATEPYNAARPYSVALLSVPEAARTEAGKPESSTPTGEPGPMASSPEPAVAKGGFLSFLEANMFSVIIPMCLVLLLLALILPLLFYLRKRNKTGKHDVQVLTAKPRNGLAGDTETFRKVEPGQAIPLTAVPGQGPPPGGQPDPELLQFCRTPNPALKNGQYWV

B1: MCSPN-CD3N-hFc1k (bispecific antibody)
chain 1: QVQLVQSGAEVKKPGASVKVSCKASGYTFTRSWMNWVRQAPGQGLEWMGRIYPGDGDTNYNGKFKGRVTMTRDTSTSTVYMELSSLRSEDTAVYYCARGNTVVVPYTMDYWGQGTTVTVSSGGGGSGGGGSGGGGSDIQMTQSPSSLSASVGDRVTITCRASESVDSYGNSFMHWYQQKPGKAPKLLIYLASNLESGVPSRFSGSGSGTDFTLTISSLQPEDFATYYCQQNNEDPLTFGGGTKVEIKRAAADKTHTCPPCPAPPVAGPSVFLFPPKPKDTLMISRTPEVTCVVVDVSHEDPEVKFNWYVDGVEVHNAKTKPREEQYNSTYRVVSVLTVLHQDWLNGKEYKCKVSNKGLPSSIEKTISKAKGQPREPSVFPLAPSSKSTSGGTAALGCLVKDYFPSDIAVEWESGALTSGVHTFPAVLQSSGLYSLSSVVTVPSSSLGTQTYSCSVMHEALHNHYTQKSVEPKSC
chain 2: DIQMTQSPSSLSASVGDRVTITCRASQDIRNYLNWYQQKPGKAPKLLIYYTSRLHSGVPSRFSGSGSGTDFTFTISSLQPEDIATYYCQQGNTLPWTFGQGTKLEIKRGGGGSGGGGSGGGGSQVQLVQSGAEVKKPGSSVKVSCKASGGTFSGYTMNWVRQAPGQGLEWMGLINPYKGVSTYNGKFKDRVTITADKSTSTAYMELSSLRSEDTAVYYCARSGYYGDSDWYFDVWGQGTLVTVSSSGGGSGGGGSDKTHTCPPCPAPPVAGPSVFLFPPKPKDTLMISRTPEVTCVVVDVSHEDPEVKFNWYVDGVEVHNAKTKPREEQYNSTYRVVSVLTVLHQDWLNGKEYKCKVSNKGLPSSIEKTISKAKGQPREPSVFIFPPSDEQLKSGTASVVCLVNNFYPRDIAVEWEVDNALQSGNSQESVTEQDSKDSTYSLSSTLTLSKADYEKHKVYSCSVMHEALHNHYTQKSFNRGECGGGGSGGGGSGGGGSGTGGSGG
In the case of B1, in assay [1], the “Cytotxicity IC50” value was 0.2 nM.

B2: Her3N-CD3N-hFc1k (bispecific antibody)
chain 1: QVQLQQSGPGLVKPSQTLSLTCAISGDSVSSNRAAWNWIRQSPSRGLEWLGRTYYRSKWYNDYAQSLKSRITINPDTPKNQFSLQLNSVTPEDTAVYYCARDGQLGLDALDIWGQGTMVTVSSGGGGSGGGGSGGGGSQAGLTQPPAVSVAPGQTASITCGRDNIGSRSVHWYQQKPGQAPVLVVYDDSDRPAGIPERFSGSNYENTATLTISRVEAGDEADYYCQVWGITSDHVVFGGGTKLTVLAAADKTHTCPPCPAPPVAGPSVFLFPPKPKDTLMISRTPEVTCVVVDVSHEDPEVKFNWYVDGVEVHNAKTKPREEQYNSTYRVVSVLTVLHQDWLNGKEYKCKVSNKGLPSSIEKTISKAKGQPREPSVFPLAPSSKSTSGGTAALGCLVKDYFPSDIAVEWESGALTSGVHTFPAVLQSSGLYSLSSVVTVPSSSLGTQTYSCSVMHEALHNHYTQKSVEPKSC
chain 2: DIQMTQSPSSLSASVGDRVTITCRASQDIRNYLNWYQQKPGKAPKLLIYYTSRLHSGVPSRFSGSGSGTDFTFTISSLQPEDIATYYCQQGNTLPWTFGQGTKLEIKRGGGGSGGGGSGGGGSQVQLVQSGAEVKKPGSSVKVSCKASGGTFSGYTMNWVRQAPGQGLEWMGLINPYKGVSTYNGKFKDRVTITADKSTSTAYMELSSLRSEDTAVYYCARSGYYGDSDWYFDVWGQGTLVTVSSSGGGSGGGGSDKTHTCPPCPAPPVAGPSVFLFPPKPKDTLMISRTPEVTCVVVDVSHEDPEVKFNWYVDGVEVHNAKTKPREEQYNSTYRVVSVLTVLHQDWLNGKEYKCKVSNKGLPSSIEKTISKAKGQPREPSVFIFPPSDEQLKSGTASVVCLVNNFYPRDIAVEWEVDNALQSGNSQESVTEQDSKDSTYSLSSTLTLSKADYEKHKVYSCSVMHEALHNHYTQKSFNRGECGGGGSGGGGSGGGGSGTGGSGG
notes: also called scFv3-43-CD3-Hinge-Fc1k
Regarding B2, the EC50 (as a rule, the concentration at which the effect is half-maximal) in the assay with Her3-Fc fusion protein was 1 nM.

B3: Fv13.7-Fc1k (Fc fusion)
chain 1: HVQLVQSGAEVKKPGSSVKVSCKASGYTFTDFYINWVRQAPGQGLEWIGEIVPSQGEAKYNDKFKARVTITADKSTSTAYMELSSLRSEDTAVYYCARWDFLDYWGQGTTVTVSSGTGGGSGPSVFLFPPKPKDTLMISRTPEVTCVVVDVSHEDPEVKFNWYVDGVEVHNAKTKPREEQYNSTYRVVSVLTVLHQDWLNGKEYKCKVSNKGLPSSIEKTISKAKGQPREPSVFPLAPSSKSTSGGTAALGCLVKDYFPSDIAVEWESGALTSGVHTFPAVLQSSGLYSLSSVVTVPSSSLGTQTYSCSVMHEALHNHYTQKSVEPKSC
chain 2: DVQMTQSPSSLSASVGDRVTITCRSSQSLLHSNGNTYLHWYQQKPGKAPKLLIYTVSNRFSGVPSRFSGSGSGTDFTLTISSLQPEDFATYYCSQSTHVPYTFGGGTKVEIKGTGGGSGPSVFLFPPKPKDTLMISRTPEVTCVVVDVSHEDPEVKFNWYVDGVEVHNAKTKPREEQYNSTYRVVSVLTVLHQDWLNGKEYKCKVSNKGLPSSIEKTISKAKGQPREPSVFIFPPSDEQLKSGTASVVCLVNNFYPRDIAVEWEVDNALQSGNSQESVTEQDSKDSTYSLSSTLTLSKADYEKHKVYSCSVMHEALHNHYTQKSFNRGEC
As for B3, in assay [2], the “factor of increased inhibitory potential (IL-8 inhibition) compared to ATROSAB” value turned out to be 2.5 fold and the “fold reduced bioactivity (IL-8 inhibition) compared to Fab13.7” value turned out to be 1.5 fold. Further, the “IL-8 Inhibition IC50” value in assay [3] is 39.7 nM. For the same molecule, the “fold reduced binding affinity compared with Fab13.7” value in assay [4] amounted to 1.9 fold. Moreover, in [5], the EC50 came out at 1.18 nM.

B4: Fab13.7 (Fab, V domains shown)
VH: HVQLVQSGAEVKKPGSSVKVSCKASGYTFTDFYINWVRQAPGQGLEWIGEIVPSQGEAKYNDKFKARVTITADKSTSTAYMELSSLRSEDTAVYYCARWDFLDYWGQGTTVTVSS
VL: DVQMTQSPSSLSASVGDRVTITCRSSQSLLHSNGNTYLHWYQQKPGKAPKLLIYTVSNRFSGVPSRFSGSGSGTDFTLTISSLQPEDFATYYCSQSTHVPYTFGGGTKVEIK
notes: Monovalent anti-human TNFR1 control Fab; Its variable domains are those used in Fv13.7-Fc1k and Fv13.7x-Fc1k
Take B4: the EC50 was 0.17 nM in [6], 0.61 nM in assay [5] and 0.9 nM in assay [9]. Also, the “IC50, IL-6 release (HeLa cells)” value in assay [2] came out at 31.7 nM. Besides, the figures for the “IL-8 Inhibition IC50” value in assay [3] and in assay [7] were 26.3 nM and 13 nM, respectively. For the same molecule, the “IC50, Cell death induction [nM] (Kym-1 cells, 0.01 nM TNF)” value in [8] was determined as 9.5 nM. In addition, in assay [8], the “IC50, IL-6 [nM] (HeLa cells, 0.1 nM TNF)” value was determined as 37.1 nM. Further, the “IC50, IL-8 [nM] (HT1080 cells, 0.1 nM TNF)” value in [8] came out at 12.7 nM.

B5: Her3N-CD3C-hFc1k (bispecific antibody)
chain 1: QVQLQQSGPGLVKPSQTLSLTCAISGDSVSSNRAAWNWIRQSPSRGLEWLGRTYYRSKWYNDYAQSLKSRITINPDTPKNQFSLQLNSVTPEDTAVYYCARDGQLGLDALDIWGQGTMVTVSSGGGGSGGGGSGGGGSQAGLTQPPAVSVAPGQTASITCGRDNIGSRSVHWYQQKPGQAPVLVVYDDSDRPAGIPERFSGSNYENTATLTISRVEAGDEADYYCQVWGITSDHVVFGGGTKLTVLAAADKTHTCPPCPAPPVAGPSVFLFPPKPKDTLMISRTPEVTCVVVDVSHEDPEVKFNWYVDGVEVHNAKTKPREEQYNSTYRVVSVLTVLHQDWLNGKEYKCKVSNKGLPSSIEKTISKAKGQPREPSVFPLAPSSKSTSGGTAALGCLVKDYFPSDIAVEWESGALTSGVHTFPAVLQSSGLYSLSSVVTVPSSSLGTQTYSCSVMHEALHNHYTQKSVEPKSC
chain 2: DKTHTCPPCPAPPVAGPSVFLFPPKPKDTLMISRTPEVTCVVVDVSHEDPEVKFNWYVDGVEVHNAKTKPREEQYNSTYRVVSVLTVLHQDWLNGKEYKCKVSNKGLPSSIEKTISKAKGQPREPSVFIFPPSDEQLKSGTASVVCLVNNFYPRDIAVEWEVDNALQSGNSQESVTEQDSKDSTYSLSSTLTLSKADYEKHKVYSCSVMHEALHNHYTQKSFNRGECGGGGSGGGGSGGGGSGTDIQMTQSPSSLSASVGDRVTITCRASQDIRNYLNWYQQKPGKAPKLLIYYTSRLHSGVPSRFSGSGSGTDFTFTISSLQPEDIATYYCQQGNTLPWTFGQGTKLEIKRGGGGSGGGGSGGGGSQVQLVQSGAEVKKPGSSVKVSCKASGGTFSGYTMNWVRQAPGQGLEWMGLINPYKGVSTYNGKFKDRVTITADKSTSTAYMELSSLRSEDTAVYYCARSGYYGDSDWYFDVWGQGTLVTVSS
In the assay with Her3-Fc fusion protein, B5 yielded an EC50 of 0.1 nM.

The record behind these values is patent US20200172619A1 (UNIVERSIT T STUTTGART, published 2020).
